Patent US20090042809A1 (published 2009)

What was measured:
[1] = molecular target: T1, angiotensin converting enzyme (ACE), obtained from Sigma Chemicals; test: cell-based or functional assay
[2] = molecular target: T1, angiotensin converting enzyme (ACE), …; test: cell-based or functional assay; remark: listed apart in the source

| IC50 value in µM, Modified Matsui assay (cleavage of Hip-His-Leu by ACE) [1] | IC50 value in µM, at-line ACE assay (cleavage of HHL by ACE) [1] | IC50 value in the Modified Matsui test [2] | Binder |
| --- | --- | --- | --- |
| 10 µM | 50 µM | – | ITP [tripeptide ITP (Ile-Thr-Pro), chemically synthesised] |
| 2 µM | 7.1 µM | – | IPP [tripeptide IPP (Ile-Pro-Pro), chemically synthesised] |
| 0.4 µM | 3.8 µM | 0.5 µM | MAP [tripeptide MAP (Met-Ala-Pro), chemically synthesised] |
